Our source for the protein production values is a protein production outcome set (Wang et al. 2014).

The data set is described as follows: label from the status in PepcDB records.
“MIGFLTDWGLKSHYVGVAKAVIKRINPSAEIIDITHEVEPFNVRKASHVLYRASLDFPPSTVFLVVVDYGVGTSRKAIVMKTKNDQYFVAPDNGVLTVVAEEYGVAEIREIENRELFYKKNPSFTFHGRDIFAPVAAHLDMGLPLERVGDRLLSYEVLKMRKPVVENEKVIGEVAIVDTFGNVSTNIPFDLFLKLSVDFDDVVRVRVGRKEFKAAVAKAFGDVDTGELLVHPDSAGFLEIAVNLGDASQVLSVKEGDEIEICR”: the protein production entry is on record as “not failed”.
The result for “MTEKLIEQLEARINDLECQVAFQEQTIEDLNSALSQQQLQITKMQDQMKYVVGKVKNMDSSNMEDPANEPPPPHY” reads “failed”; that for “MNSGDNIIKKKSFTFAVRIVNLYKVLSSEIKEFVMSKQLLRSGTSVGANIREALNAQSKPGFIHKLAISQKECDETGYTNNVEFESMNTDAIELLKIVRSIIMTSKKNIIHNSLEHHHHHH”, “failed”; that for “MVFSNSLLSSTTSLTTWANQSSSQSSLSPRYSTWQCVCLRNQKRKPKLYLIPARHFLSTPIDSVSSSSITASRYATSGVSEVQRSTSSNNVTEMEEFEMELQELFNEVKSMVKIGKESDAMDLLRANYVAVKEELDSGLKGIEQAAVLDIIALGYMAVGDLKPVPALLDMINKIVDNLKDSEPLLDSVLMHVGSMYSVIGKFENAILVHQRAIRILENRYGKCNTLLVTPLLGMAKSFASDGKATKAIGVYERTLTILERNRGSESEDLVVPLFSLGKLLLKEGKAAEAEIPFTSIVNIYKKIYGERDGRVGMAMCSLANAKCSKGDANEAVDIYRNALRIIKDSNYMTIDNSILENMRIDLAELLHFVGRGDEGRELLEECLLINERFKGKNHPSMATHLINLAASYSRSKNYVEAERLLRTCLNIMEVSVGSEGQSITFPMLNLAVTLSQLNRDEEAEQIALKVLRIREKAFGEDSLPVGEALDCLVSIQARLGRDDGEILGLLKRVMMIQEKEFGPSAQELIVTLQKIIHFLEKLEMKDDKFKFRRRLALLRERYKQSLSY”, “failed”.
For “MPATAGRVRMPANNRVHSSAALQTHGIWQSAIGYDPYAPTSKEEPKTTQQKTEDPENSYASFQGLLALARITGSNNDEARGSCKKCGRVGHLTFQCRNFLSTKEDKEKDPGAIEAAVLSGLEKIRRGVGKGEVEEVSSEEEEESESSDSDVDSEMERIIAERFGKKKGGSSVKKTSSVRKKKKRVSDESDSDSDSGDRKRRRRSMKKRSSHKRRSLSESEDEEEGRSKRRKERRGRKRDEDDSDESEDEDDRRVKRKSRKEKRRRRSRRNHSDDSDSESSEDDRRQKRRNKVAASSDSEANVSGDDVSRVGRGSSKRSEKKSRKRHHRKERE”, the protein production entry is “failed”.
“MPQAPTLQSFIAGRWFGQHPAQSLRSAIDGHEVARTHEEAPDFAEALAFGRHQGGKALLALDFQQRAQRLKALALYLSGRKEQLYALSHHSGATRADSWIDIEGGNSTLFSYAGLGARELPSGNLLHEGPAQSLSKLGSFAGSHILVPRGGVAVHINAFNFPIWGMLEKFAPCFLAGMPCIVKPASATSYLTEAAMRLMHESGLLPEGSLQLVIGATGDLLDRLQGQDLVTFTGSASTAGRLRANPNLIRHSVPFNAEADSLNCAILAPDVSPDDEEFELFIKEVAREMTVKAGQKCTAIRRAIIPAKQLDAVATRLRERLSKVVVGDPAVEGVRMGALASHEQQRDVAERLQSLLHSSDLLFGARDGFEPRGTNVSQGAFFAPTLLLARDPMAEGGAHDIEAFGPVSTLMAYDDLDQALELASRGKGSLVASLVTKSPAIAAQVIPRAAAWHGRLLVLDRECAGESTGHGSPLPQLKHGGPGRAGGGEELGGLRAVKHYLQRAAIQGSPSMLAAVTGEYVRGAKVLETEVHPFRRYFQDLRIGESLLTHRRTVTEADLVNFGCLSGDHFYMHFDEIAARESQFGKRIAHGYFVLSAAAGLFVSPGPGPVLANYGLDTLRFITPVGIGDTLQARLTCKRKIDQGKLSPQGTPQGVVAWDVEVSNQLGEVVASYDILTLVAKRTE”: the protein production result is reported as “failed”.
Consider “MSKQPWLGYLASVAITCTAAGLAYLLDHWLLPTSGTVLILQLAVLLIAFLTNFRAALLAVVLALLLFNFLFTEPRYSLHMTDIDEMVTAIVFIAVGVITSHLVTLFRNQKESLRQAQLRSNILLSVSHDLRTPLASVIGNLSTLQAYQERLPEQERAELLQGALDESDRLHRYIENLLQATRLQHGEIRLTHAVQDIRPVISKTLSRFASQERLLVKDNLQHAMVEVQSSLLEQALFNVIDNAMRFSGETAPVTLSLSETDKFIVIDIKDEGPGIETSKRSLVFNVFYSSREKDSGTGGTGLGLSVAKGIIDIHNGHIGIEESPDGCLVRIKLPRANITEEVS”, for which the protein production result is “failed”.
The result for “MTSPASCSPPNEKRTGSPFPPESRSLPSTMEMTMNTIFRPAPHPLPDAPFYTPLGNECVLFESAWVRQLPLLLKGPTGCGKTRFVSHMAAKLGLPLSTISCHDDLAAADLTGRYLLKGGETVWMDGPLTRSVRQGGICYLDEIVEARKDVAVVLHPLTDDRRILPLERTGEVLEAPSGFMLVVSYNPGYQNLLKSLKPSTRQRFVAIEFDFLPKEQEIAVVSHESGLDARDVEPLVDLAHRLRGLKGHDLEEGVSTRLLVYCASLIDTGLPARQAVRATMIEPLTDEPDVKAALHEVADAIIRLEHHHHHH” reads “failed”; that for “MVKTKKEDLNQFLIPRLNTIYETLQLFDGTASPTVERVNWNDVLQMSDHLSKQATIVGMLWTGESPKADSLKETMESYFNALQGFLLCCHGSTLGAGPTLSSIIHVSVKQIVDSSFRLLQGSVSLYEGSYEKDKKPSIPQLSGVVWEACSSFKKVPATNITAIGRAITQVAVSMKDVLREMKEVKPACPLSECEASGDNMSSDDDDDDDLGDDLSPEEMEVATMVTEIVSETIMVIKELIRVITGMIKMENPKDNSGFVESLEKLLKLCQGTGVQIDELGACVYPPQEMNKMKQTVKVIQGNLDEFETEVERLKSSSDGFSGACGKLRNSLKHMETELDKRCEAELVVEMQNVTLDS”, “failed”.
The result for “MKGSLIIVGFFVLGALCGVYHLIPYDFTQSKLSFYALCALMFSVGVSVGNDPQTLRNFRSLNPRLIFLPVMTILGTLAGCAVVSLFLS” reads “failed”; that for “VDDTVNVANEYSRYPLENYQLDFYVDNSWGWLPWNWSDGIGKQVMYGLYAITNFIWTISLYVSNATGYLVQEAYSLDFISATADSIGKNMQTLAGVTPSGLSTEGFYVGFLLLLILVLGVYVVYTGLIKRETTKAIHAIVNFVMVFILSASFIAYAPDYIKKIN”, “failed”; that for “MSERKINDEPKSMLLLQRGEEFGKVNNGSKNRAFSSFTKFKIPSQFKTNSSITSFSNRREDIREPNSNSLFSMYNNDVLLKYDTTEVALATTNMFTHTVWNNKSEEIISYGYGSHVSFSCFIGFHY”, “failed”.
The result for “APKTFMFGVSKVEEPKTVSFGTGIKETTATSSTEATAPTPAAAAPAPVQFVFKAPTTATTASSLTTTISTTSNAPALGGFSFGAPSSSSTVSSSTTSTSANPAAVKPMFSWSGAGSAVSSTSSSQQPVAKAPTLGFGVSSSTVTTTTTSTKVFAFTPASGLDPAAATSAPAAGAGFSFGSQSKPATTQNTGTFFFGQPTAVAPATPTNPSVSSIFGAPATSTTASTSVSATTSTSTANAIASSFAPTSTPQLFGNWGEKKTDLTTFGASSGSGTTTTPSFGWSSNGDAAKSNSAAVGSAAVPSSSASTMATPIFGSSSMFGPSSSSNNTTSTSTTSLPFGSAATTAATTPAGGNAALTGLFGNVGNSLAGVGAPVATTPAATAAAPLTNIFGNPTPVAAAAPVFGSGSTIPSAGFGAPAAAAPLAAPALPGAFN” reads “failed”.
“MDEGRRINIPKIGAVKCKFHRLLEGTPKTLQIVLDVNEWYAVYTCEVPVQPLPETGSTVGVDVGTRYFAITSDGEFVHNPRHLGSALKKLRVQQRTVSRRKKGGNRRRKAVGQVAKTHRKIRRSRQDFHHKVAVKLVRENDLIAHEDLRVSNVVKSNLARSISDVGWSAFFDILRGKAESAGRVVVRVPPQYTSQRCHACGHTCRENRNNEVFKCVSCGHEDHADWNAAKNILGRAVPSGVNGSGVSHAVA”: the protein production entry is “failed”.
To “MDELELRIRKAEKLVQDAKKEFEMGLYERCCSTAYYAMFHAAKAMLLGYGRDSKTHRGTIYLIWECREELGLSDDDCSKLSRAFDLREESDYGIYKEVSKDLAIKILKDAEIFVQKAKNAVNKNR” belongs “not failed”.
To “YNPWRNPQNALERRNIVLRLMLEHKMIGDELYQLLSQRPLGVQKKGQISRKYPAFIQTLQADLRRKLGEHKISSLLGA” belongs “failed”.
To “MQVHYYGGTAEAAGTSEETVETPTGLSVNQLLDHLRNLHPGLGRLLGVCTLFVDGSAVRGEQIVPARAQVEVLPPFAGG” belongs “failed”.
As for “MNSPANITDPLVLFMPSGKRGRFPVGTPVLDAARQLGVYVESVCGGRATCGRCQIEVQEGNFAKHKIVSSNDHISPKGPKEERYERVRGLPERRRLSCSAQILGDLVIDVPQDTVINALEHHHHHH”, the protein production result is on record as “failed”.
The result for “MLWFAMSSVLRVRPTKIELIRLKRRKALAEKVHRILRERLTILVNEFLVRVREAYSLRRTVNDLVFNLYNDSVLLNSVYGEYGFQYFRSITVEGLRAVIGVENIMGVKTRSAVVKHSKTIEYVYPGFDSFRDGARKLIEAIIELGRAEQALIALGREIERTKRKVNALKYIIIPRLANTIRYLNMKFEEREREEKARLKRIKSVLEKRR” reads “failed”; that for “MRTIAFALALLATPVAAELEAARDLMDAGRFDEAYAALWPAARSGNAEAEELIGVIYAMGLGRPRDDQRAFEWYLRAAMKGHPGAQSGVGWYYEVGRGLPAPDLMRAYMWYTLSAIGGDPDAAISLEEVAKKMTAEEINKAHVLVADYKVWMYPFR”, “failed”.
The result for “RTSYLEFNQRDKNSPYNNVNLRKAISAAIDRNALVDKILGDGSVVATGLIPEGMSYSPTDDTDFADENKKIVEYSPEKAKEYWAKAKKELGITTLKMDIVADDVDSTKKLAEYIQGTLKDTLEGIDVTVSPVPFSVRIDRGSRGDFETILGGWAADYADPSSFLDLFVTGNNYNRGRFSSKAYDELIEASATRDASDPEKRWEDMVKAEKLLIGEETALAPLYQKA” reads “failed”.
The result for “MSSDAISLRAAGPGDLPGLLELYQVLNPSDPELTTQEAGAVFAAMLAQPGLTIFVATENGKPVATATLLIVPNLTRAARPYAFIENVVTLEARRGRGYGRTVVRHAIETAFGANCYKVMLLTGRHDPAVHAFYESCGFVQNKTGFQIRQD” reads “not failed”; that for “MILLIMNTDDFQFFIRVADCGSLSKAAQEANISVSVASQRIQRLESTLKLRLFYRTTRKITLTDEGRKLLDFGRYWLDDFITLKDTLTARDKPLTGNLRVTTSATFGIKILTKVIANFALLHPTLNIYLDLNDQNIDLIEHGMDLAIRIGKLNDSSLVAKPLMTNHRLICAAPSYLNQYGMPHSIEDLQQHRCILQQHQNGLTDHWQLIDQKRTVVDVHLKAYFTTNSGEAIRQAALQGLGISNHSRWHVADDLEQGHLIELLPEYQIEPTTIYAVFPNRQFRQPKTELFLSYLQNYFKHEYPWNIRKN”, “failed”; that for “MQRFIDNSLESNWLWLTARICLALMFVASGLAKLFDYQASLEEMRAAGLEPAWLFNIATAVTLLAGSALVLLDRKLWLGAGALAVFLLLTILIVHTFWSKTGVEAKLAMFFALEHIAVIGGLIATAIASAQRQRLRQDVSVAATYQKA”, “failed”.
Turning to “MSSAIERKSLDPSEEPVDEVLQIPPSLLTCGGCQQNIGDRYFLKAIDQYWHEDCLSCDLCGCRLGEVGRRLYYKLGRKLCRRDYLRLFGQDGLCASCDKRIRAYEMTMRVKDKVYHLECFKCAACQKHFCVGDRYLLINSDIVCEQDIYEWTKINGMI”, the protein production entry is given as “failed”.
